# According to patent US20240092877A1 (DXDISCOVERY, published 2024):
# T1: TcfA peptide amino acids 305-323 conjugated to bovine serum albumin (Bordetella pertussis, conjugated to bovine serum albumin (BSA))
# T1 construct: Protein fragment coated on ELISA plates; BSA conjugate
# T1 peptide: GGDEGPQPPQGGGEQDAPE
# T2: TcfA protein fragment amino acids 40-374 (Bordetella pertussis)
# T2 construct: Not conjugated to BSA
# T2 chain: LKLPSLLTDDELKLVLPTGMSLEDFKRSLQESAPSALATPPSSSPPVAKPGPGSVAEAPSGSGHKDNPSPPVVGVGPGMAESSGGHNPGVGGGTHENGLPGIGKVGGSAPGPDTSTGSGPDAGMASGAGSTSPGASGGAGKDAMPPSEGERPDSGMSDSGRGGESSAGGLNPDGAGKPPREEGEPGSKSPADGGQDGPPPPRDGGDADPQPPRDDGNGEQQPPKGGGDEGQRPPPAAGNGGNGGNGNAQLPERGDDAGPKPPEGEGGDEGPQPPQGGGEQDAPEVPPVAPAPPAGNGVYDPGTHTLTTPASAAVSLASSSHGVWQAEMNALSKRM
# T3: TcfA peptide amino acids 288-304 conjugated to bovine serum albumin (Bordetella pertussis, conjugated to bovine serum albumin (BSA))
# T3 construct: Protein fragment coated on ELISA plates; BSA conjugate
# T3 peptide: QLPERGDDAGPKPPEGE
# T4: TcfA peptide amino acids 140-160 conjugated to bovine serum albumin (Bordetella pertussis, conjugated to bovine serum albumin (BSA))
# T4 construct: Protein fragment coated on ELISA plates; BSA conjugate; also called aa140-160
# T4 peptide: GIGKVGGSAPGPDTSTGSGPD
# B1: anti-TcfA monoclonal antibody 14G11 (antibody, V domains shown)
# VH: EVKLVESGGGLVQPGGSLSLSCAASGFTFTDYYMSWVRQPPGKALEWLGFIRNKANGYTTEYSASVKGRFTISRDNSQSILYLQMNALRAEDSATYYCARYRRDYYGSLNYYTMDYWGQGTSVTVSS
# VL: DIQMTQSPASLSASVGETVTITCRASENIYSYLAWYQQKQGKSPQLLVYNAKTLAEGVPSRFSGSGSGTQFSLKINSLQPEDFGSYYCQNHYGIPLTFGAGTKLELK
# B2: anti-TcfA monoclonal antibody 18B2 (antibody, V domains shown)
# VH: QVQLQQSGAELVRPGTSVKMSCKAAGYTFTNYWIGWVKQRPGHGLEWIGDIYPGGVYTNYNENFKGKATLTADTSSSTAHMQLSSLTSEDSAIYYCVRGGKYGNFFAMDYWGQGTSVTVSS
# VL: DIVITQDELSNPVTSGESVSISCRSSKSLLYKDGKTYLNWFLQRPGQSPQLLIYLMSTRASGVSDRFSGSGSGTDFTLEISRVKAEDVGVYYCQQLVEYPFTFGSGTKLEIK
# B3: anti-TcfA monoclonal antibody 14D12 (antibody, V domains shown)
# VH: EVMLVESGGALVKPGGSLKLSCAASGITFSNYAMSWIRQTPEKRLEWVASISSGGSYIYYSDSVKGRFTISRDNARNTLNLQMSSLRSEDTAMYYCVRGAHGNFDYWGQGTTLTVSS
# VL: DIVLTQSPASLAVSLGQRATISCRTSETVDYDGDSYMNWYQQKSGQPPKLLISGASNVESGVPARFSGSGSGTDFSLNIHPVEEDDITMYFCQQNRKLPYTFGSGTKLEMK
# B4: anti-TcfA monoclonal antibody 20F4 (antibody, V domains shown)
# VH: QIQLVQSGPELKKPGETVKISCKASGYTFTNYGMNWVKQAPGKGLKWMGWINTYTGEPTYADDFKGRFAFSLETSATTAYLQINNLKNEDTATYFCARAATGYFDYWGQGTTLTVSS
# VL: DIVMSQSPSSLAVSAGEKVTMSCKSSQSLLYSSNQKNYLAWYQQKPGQSPKLLIYWASTRESGVPDRFTGSGSGTDFTLTISSVKAEDLAVYYCQQYYNEYTFGGGTKLEIK
# B5: anti-TcfA monoclonal antibody 13E11 (antibody, V domains shown)
# VH: EVQLVESGGGLVKPGGSRKLSCAASGFTFSDYGMHWVRQAPEKGLEWVAYISSGSSTIYYADTVKGRFTISRDNAKNTLFLQMTSLRSEDTAMYYCARPRSGRYFDYWGQGTTLTVSS
# VL: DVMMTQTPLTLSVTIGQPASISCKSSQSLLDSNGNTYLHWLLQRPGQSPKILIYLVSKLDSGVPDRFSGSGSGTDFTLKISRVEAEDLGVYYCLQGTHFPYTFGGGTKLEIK
# B6: anti-TcfA monoclonal antibody 23F8 (antibody, V domains shown)
# VH: EVQLVESGGGLVKPGGSRKLSCAASGFTFSDYGMHWVRQAPEKGLEWVAYISSGSRTIYYADTVKGRFTISRDNAKNTLFLQMTSLRSEDTAMYYCARLGYGYDWYFDVWGTGTTVTVSS
# VL: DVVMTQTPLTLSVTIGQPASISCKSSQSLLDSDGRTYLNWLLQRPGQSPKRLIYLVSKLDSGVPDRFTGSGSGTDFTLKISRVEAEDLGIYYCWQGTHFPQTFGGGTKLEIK
# B7: anti-TcfA monoclonal antibody 3E6 (antibody, V domains shown)
# VH: EVKLVESGGGLVQPGGSLRLSCATSGFTFTDYYMSWVRQPPGKALEWMGFIRNKAKGYTTDYSASVKGRFTISRDDSQSILYLQMNTLRPEDSATYYCARNYDYSMDYWGQGTSVTVSS
# VL: DIQLTQSPASLSASVGETVTITCRASDNIHKYLAWYQQKQGKSPQRLVYNAKTLADGVPSRFNGSGSGTQYSLKINSLQPEDFGIYYCQHFWSTPLTFGAGTKLELK
# B8: anti-TcfA monoclonal antibody 10B1 (antibody, V domains shown)
# VH: EVQLQQSGAELVKPGASVKLSCTASGFNIKDTYIHWVKQRPEQGLEWIGRIDPANGNTIYASKFQGKAPITAVTSSNTAYMQFSSLTSGDTAVYYCTAMDYWGQGTSVTVSS
# VL: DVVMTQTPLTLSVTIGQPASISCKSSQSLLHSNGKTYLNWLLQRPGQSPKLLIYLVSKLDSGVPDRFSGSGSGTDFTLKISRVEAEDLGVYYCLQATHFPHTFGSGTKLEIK
# B9: anti-TcfA monoclonal antibody 7E11 (antibody, V domains shown)
# VH: EVQLQQSGAELVKPGASVKLSCTASGFNIKDTYIHWVKQRPEQGLEWIGRIDPANGNIIYASKFQGEATITADTSSNTAYMQLSSLTSGDTAVYYCSAMDYWGQGTSVTVSS
# VL: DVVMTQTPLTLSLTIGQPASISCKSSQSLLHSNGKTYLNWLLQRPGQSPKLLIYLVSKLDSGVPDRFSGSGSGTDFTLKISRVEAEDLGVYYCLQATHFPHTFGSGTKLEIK
# How the values were obtained:
# Experiment in all cases: indirect ELISA, plates coated with TcfA protein fragment
# [1] = molecular target: T1, TcfA peptide amino acids 305-323 …
# [2] = molecular target: T2, TcfA protein fragment amino acids 40-374
# [3] = molecular target: T3, TcfA peptide amino acids 288-304 …
# [4] = molecular target: T4, TcfA peptide amino acids 140-160 …
Binder,binding result [1],binding result [3],binding result [4],further results
B1,binds,–,–,–
B2,–,–,–,binding result [2]: binds
B3,–,binds,–,–
B4,binds,–,–,–
B5,binds,binds,–,–
B6,–,binds,–,–
B7,–,–,binds,–
B8,–,–,binds,–
B9,–,–,binds,–
